Results from patent US20140056903A1 (Regeneron, published 2014).
Residue numbers refer to the chain shown, from its start. In names and notes the source's numbering stands.

T1: human GFRα3 on HEK293/hGFRα3/hRET/SRE-luc cells (human, UniProt O60609 32-382)
T1 sequence: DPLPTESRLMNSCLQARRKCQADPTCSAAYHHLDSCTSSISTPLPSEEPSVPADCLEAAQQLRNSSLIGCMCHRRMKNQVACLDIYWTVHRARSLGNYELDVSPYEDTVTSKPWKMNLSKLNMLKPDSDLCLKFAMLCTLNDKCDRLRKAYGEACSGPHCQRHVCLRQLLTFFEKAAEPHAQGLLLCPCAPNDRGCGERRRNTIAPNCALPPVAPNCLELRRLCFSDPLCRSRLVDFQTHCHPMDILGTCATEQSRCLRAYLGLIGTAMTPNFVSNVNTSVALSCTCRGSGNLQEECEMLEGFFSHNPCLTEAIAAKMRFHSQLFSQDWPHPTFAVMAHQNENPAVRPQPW

B1: H4H2350P (antibody, human IgG4, V domains shown)
VH: QVQLQESGPGLVKPSETLSLTCTVSGGSISTYYWSWFRQPPGKGLEWIGYIYYSGSTNHNPSLKSRVTISVDTSKNQFSLKLRSVTAADTAVYYCARVGPVGWGSWGNFDYWGQGTLVTVSS
VL: DIQLTQSPSFLSASVGDRVTITCWASQGISSYLAWSQQKPGKAPKLLIYAASTLQSGVPSRFSGSGSGTEFTLTISSLQPEDFATYYCQQLNSYPWTFGQGTKVEIK
notes: human IgG4 Fc (H4H)
B2: H4H2344S (antibody, human IgG4, V domains shown)
VH: EVQLVESGGGVVQPGRSLRLSCAASGFSFSDYVMHWVRQAPGKGLEWVASIWFDGSNEFYADSVKGRFTISRDNSKNTLFLQMNSLRAEDTAVYYCAKKGVLVATSAFDIWGQGTMVTVSS
VL: DIQMTQSPSSLSASVGDRVTITCRASQSINNYLNWYHQKPGKAPKLLIYAASSLQSGVPSRFSGSGSGTDYTLTISSLQPEDFGNYYCQQSYRTSMYTFGQGTKVEIK
notes: human IgG4 Fc (H4H)
B3: H4H2346S (antibody, human IgG4, V domains shown)
VH: B2 VH with E1Q
VL: B2 VL with D1E, Q3V
notes: human IgG4 Fc (H4H)
B4: H4H2293P (antibody, human IgG4, V domains shown)
VH: B2 VH with E1Q, F59L, D109H
VL: B2 VL with D1A, S28N, K45N, R93S, V105L
notes: human IgG4 Fc (H4H)
B5: H4H2354S (antibody, human IgG4, V domains shown)
VH: B2 VH with E1Q
VL: B2 VL with M4L
notes: human IgG4 Fc (H4H); also called H4H2354S-1
B6: H4H2345S (antibody, human IgG4, V domains shown)
VH: EVQLVESGGGLVRPGRSLRLSCAASGFTFDNYAMHWVRQVPGKGLEWVSGITWNSVSLGYADSVKGRFTISRDNAQNSLYLQMNSLRTVDTALYYCAKDRWGGSYYFDFWGQGTLVTVSS
VL: DIVMTQSPSSLSASVGDRVTITCRASQGISNYLAWYQQKPGKVPKLLIYSASTLQSGVPSRFSGSGSGTDFTLTISNLQPEDFATFFCQKYNSAPTFGGGTKVEIK
notes: human IgG4 Fc (H4H)
B7: H4H2294S (antibody, human IgG4, V domains shown)
VH: EVQLVESGGGLVQPGGSLRLSCAASGFTFSSYAMSWVRQAPGKGLEWVSVISGSGGSTYYADAVKGRFTISRDNSKHTLYLQMNSLRAEDTAVYYCTKPSSYSSSNFYYGMDVWGQGSTVTVSS
VL: DIQLTQSPSSVSASVGDRVTITCRASQGISSWLAWYQQKPGKAPKLLIYAASSLQSGVPSRFSGSGSGTDFTLTISSLQPEDFATYYCQQTNSFPFPFGPGTKVDIK
notes: human IgG4 Fc (H4H)
B8: H4H2364S (antibody, human IgG4, V domains shown)
VH: B7 VH with V12E, A33V, A40V, A63S, H77N, T97A, Y108H, S118T
VL: B7 VL with L4M, S9Y, K42R, Q90K, P97T, D105E
notes: human IgG4 Fc (H4H)
B9: H4H2341S (antibody, human IgG4, V domains shown)
VH: EVQLVESGAEVKKSGSSVKVSCKASGGTFSRYAISWVRQAPGQGLEWMGGIIPLFGTLNYAQKFQGRVTLTTDESTSTAYMELSSLRSEDTAVYYCAVFYYGSGSYRNWFDPWGQGTLVTVSS
VL: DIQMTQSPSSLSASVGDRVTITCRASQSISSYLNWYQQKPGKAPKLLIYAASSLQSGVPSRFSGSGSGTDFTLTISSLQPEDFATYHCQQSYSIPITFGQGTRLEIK
notes: human IgG4 Fc (H4H)

What follows are binders tested against T2, human GFRα3 expressed with a C-terminal myc-myc-hexahistidine tag (human, UniProt O60609 32-374, biotinylated (sites not given) in ELISA format 2 and in the Octet cross-competition; not in SPR) (assay: SPR, Ab captured, 25C).
T2 construct: also called hGFRα3-mmh; hGFRα3-mmH
Procedure: Antibodies were tested for binding to human GFRα3 expressed with either a C-terminal myc-myc-hexahistidine tag (hGFRα3-mmh; SEQ ID: 370, a C-terminal hFc tag (hGFRα3-hFc; SEQ ID:371), or a C-terminal mFc tag (hGFRα3-mFc; SEQ ID:372), as well as monkey GFRα3 expressed with a C-terminal myc-myc-hexahistidine tag (MfGFRα3-mmh; SEQ ID:373). Anti-GFRα3 antibodies were captured on either a goat anti-mouse IgG polyclonal antibody (GE Healthcare, #BR-1008-38) or a mouse anti-human IgG monoclonal antibody (GE Healthcare, #BR-1008-39) surface created through direct amine coupling to a Biacore CM5 sensor chip. Kinetic experiments were carried out using HBS-EP (10 mM HEPES, 150 mM NaCl, 3 mM EDTA, 0.05% Surfactant P20, at pH 7.4) or PBS buffer containing 0.05% v/v surfactant P20 as both the running buffer and the sample buffer. Binding to human GFRα3-mmh or monkey GFRα3-mmh was evaluated by injecting several concentrations ranging from 200 to 7.4 nM (3-fold dilutions) across the captured antibody surface. Binding to human GFRα3-mFc or human GFRα3-hFc was evaluated by injecting several concentrations ranging from 100 to 3.7 nM (3-fold dilutions) across the captured antibody surface. Antibody-antigen association was monitored for up to 4 minutes, while dissociation in buffer was monitored for up to 20 minutes. Kinetic association (kₐ) and dissociation (kd) rate constants were determined by processing and fitting the data to a 1:1 binding model using Scrubber 2.0c curve fitting software. Binding dissociation equilibrium constants (KD) and dissociative half-lives (t_{1/2}) were calculated from the kinetic rate constants as: KD (M)=kd/kₐ and t_{1/2} (min)=[ln 2/(60*kd)].

Row | Kd [nM] | koff [s⁻¹] | kon [M⁻¹ s⁻¹] | t1/2 [min] | Binder
1 | 2.01 | 0.000207 | 103000 | 56 | B1
2 | 1.31 | 0.00024 | 183000 | 48 | B2
3 | 0.43 | 7.99e-05 | 186000 | 145 | B3
4 | 0.219 | 0.000127 | 581000 | 91 | B4
5 | 0.548 | 0.00011 | 200000 | 105 | B5
6 | 29.7 | 0.00323 | 109000 | 4 | B6
7 | 0.142 | 7.99e-05 | 563000 | 145 | B7
8 | 0.104 | 3.67e-05 | 353000 | 315 | B8
9 | 1.68 | 0.000267 | 159000 | 43 | B9

Each binder was assayed against T1, human GFRα3 on … (assay: cell-based or functional assay).

Row | IC50 (SRE-luc, HEK293/hGFRα3/hRET cells, 100 pM hARTEMIN-mmH) [nM] | Binder
10 | 48 | B2
11 | 26 | B3
12 | 20 | B4
13 | 22 | B5
14 | 26 | B6
15 | 2.3 | B8
16 | 7.1 | B9

Each binder was assayed against T2, human GFRα3 expressed with a C-terminal … (assay: Octet cross-competition; biotin-hGFRα3-mmH pre-saturated with first antibody H4H2352S).
Procedure: (§1) A cross-competition assay was conducted to assess the ability of select antibodies to compete with one another for binding to human GFRα3 using an Octet RED384 biosensor (Fortebio Inc.). The entire experiment was performed at 25° C. with the flow rate of 1000 rpm in Octet HBST buffer (0.01 M HEPES pH7.4, 0.15M NaCl, 3 mM EDTA, 0.05% v/v Surfactant P20, 0.1 mg/mL BSA). To assess whether 2 antibodies were able to compete with one another for binding to their respective epitopes on biotinylated recombinant human GFRα3 expressed with a C-terminal myc-myc-hexahistidine tag (biotin-hGFRα3-mmH; SEQ ID:370), around ˜1.2 nm of biotin-hGFRα3-mmH was first captured onto streptavidin-coated Octet sensor tips (Fortebio Inc, #18-5019) by submerging the tips for 1 minute into a 10 μg/mL solution of biotin-hGFRα3-mmH. The antigen coated sensor tips were then placed into wells containing 25 μg/mL solution of a first anti-GFRα3 monoclonal antibody for 4 minutes to saturate the biotin-hGFRα3-mmH surface. The sensor tips were then subsequently dipped into wells containing 25 μ/mL solution of a second anti-GFRα3 monoclonal antibody. The sensor tips were washed in Octet HBST buffer in between every step of the experiment. The real-time binding response was monitored during the course of the experiment and the binding response at the end of every step was recorded as shown in FIG. 9. The response of mAb-2 binding to biotin-hGFRα3-mmH pre-complexed with the first antibody was compared and competitive/non-competitive behavior of different anti-GFRα3 monoclonal antibodies was determined.
Target sequence in this assay (O60609 other isoform, or with tags, fused parts or gaps limits assumed): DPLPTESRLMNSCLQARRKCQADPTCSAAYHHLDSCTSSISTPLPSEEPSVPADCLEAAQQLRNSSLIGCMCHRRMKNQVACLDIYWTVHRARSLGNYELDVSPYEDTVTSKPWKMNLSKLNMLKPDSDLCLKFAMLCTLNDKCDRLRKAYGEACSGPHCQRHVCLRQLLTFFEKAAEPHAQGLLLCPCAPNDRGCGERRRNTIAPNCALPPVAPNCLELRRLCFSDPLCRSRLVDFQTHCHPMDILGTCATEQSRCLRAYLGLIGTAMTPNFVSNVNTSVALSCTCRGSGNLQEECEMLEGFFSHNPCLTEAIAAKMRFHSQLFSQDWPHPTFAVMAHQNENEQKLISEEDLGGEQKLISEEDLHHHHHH

Row | binding response of second antibody (nm) | Binder
17 | 1.43 | B1
18 | 2.25 | B7

The binders below were run against T2, human GFRα3 expressed with a C-terminal … (assay: Octet cross-competition; biotin-hGFRα3-mmH pre-saturated with first antibody H4H2243N2).
Procedure: as §1
Target sequence in this assay (O60609 other isoform, or with tags, fused parts or gaps limits assumed): as above

Row | binding response of second antibody (nm) | Binder
19 | 1.2 | B1
20 | 0.29 | B7

What follows are binders tested against T2, human GFRα3 expressed with a C-terminal … (assay: SPR, Ab captured, 37C).
Summary of the method: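 Antibodies captured on anti-mouse or anti-human IgG CM5 surfaces, in HBS-EP or PBS-P20 at pH 7.4. mmh-tagged GFRα3 injected at 200–7.4 nM and Fc-tagged at 100–3.7 nM, with association up to 4 min and dissociation up to 20 min. Data fitted 1:1; KD=kd/ka, t1/2=ln2/(60*kd).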

Row | Kd [nM] | koff [s⁻¹] | kon [M⁻¹ s⁻¹] | t1/2 [min] | Binder
21 | 9.61 | 0.00128 | 134000 | 9 | B1
22 | 2.58 | 0.000724 | 280000 | 16 | B2
23 | 1.41 | 0.000589 | 419000 | 20 | B3
24 | 0.313 | 0.000244 | 781000 | 47 | B4
25 | 2.31 | 0.000649 | 281000 | 18 | B5
26 | 47.3 | 0.0087 | 184000 | 1 | B6
27 | 0.338 | 0.000261 | 773000 | 44 | B7
28 | 0.809 | 0.000273 | 338000 | 42 | B8
29 | 2.98 | 0.000737 | 248000 | 16 | B9

These binders were tested against T2, human GFRα3 expressed with a C-terminal … (assay: Octet cross-competition; biotin-hGFRα3-mmH pre-saturated with first antibody H4H2296S).
Procedure: as §1
Target sequence in this assay (O60609 other isoform, or with tags, fused parts or gaps limits assumed): as above

Row | binding response of second antibody (nm) | Binder
30 | 1.27 | B1
31 | 0.04 | B7

These binders were tested against T2, human GFRα3 expressed with a C-terminal … (assay: Octet cross-competition; biotin-hGFRα3-mmH pre-saturated with first antibody H4H2292S).
Procedure: as §1
Target sequence in this assay (O60609 other isoform, or with tags, fused parts or gaps limits assumed): as above

Row | binding response of second antibody (nm) | Binder
32 | 1.53 | B1
33 | 2.31 | B7
